This is an account of results in article PMC4536007, “Modulation of the Activity of Mycobacterium tuberculosis LipY by Its PE Domain” (PLoS ONE, 2015).

The data set concerns the molecule itself. Description: SEC; […] (20 mM HEPES pH 7, 100 mM NaCl, 10% glycerol); […].

B1: LipY (enzyme)
chain: MVSYVVALPEVMSAAATDVASIGSVVATASQGVAGATTTVLAAAEDEVSAAIAALFSGHGQDYQALSAQLAVFHERFVQALTGAAKGYAAAELANASLLQSEFASGIGNGFATIHQEIQRAPTALAAGFTQVPPFAAAQAGIFTGTPSGAAGFDIASLWPVKPLLSLSALETHFAIPNNPLLALIASDIPPLSWFLGNSPPPLLNSLLGQTVQYTTYDGMSVVQITPAHPTGEYVVAIHGGAFILPPSIFHWLNYSVTAYQTGATVQVPIYPLVQEGGTAGTVVPAMAGLISTQIAQHGVSNVSVVGDSAGGNLALAAAQYMVSQGNPVPSSMVLLSPWLDVGTWQISQAWAGNLAVNDPLVSPLYGSLNGLPPTYVYSGSLDPLAQQAVVLEHTAVVQGAPFSFVLAPWQIHDWILLTPWGLLSWPQINQQLGIAA
notes: LipY, PE protein with a C-terminal triglyceride lipase domain, Mycobacterium tuberculosis; 45 kDa; full length (LipYΔPE ends at residue 437); also called full length LipY; not shown: His tag, C-terminal, kept
With B1, the binding result is reported as “binds”.

B2: PE domain of LipY (domain or fragment)
chain: MVSYVVALPEVMSAAATDVASIGSVVATASQGVAGATTTVLAAAEDEVSAAIAALFSGHGQDYQALSAQLAVFHERFVQALTGAAKGYAAAELANASLLQSEFASGIGNGFATIHQEIQRAPTALAAGFTQVPPFAAAQAGIFTGTPSG
notes: LipY, Mycobacterium tuberculosis, residues 1-149 (PE domain with the linker up to the cleavage site); not shown: His tag, C-terminal, kept
In the case of B2, the binding result is given as “binds”.
